Earlier results on one substance are cited in PMC5533512.

In the data set the target is CD40 (Homo sapiens) (UniProt P25942).
UniProt P25942, sequence (P25942 21-193): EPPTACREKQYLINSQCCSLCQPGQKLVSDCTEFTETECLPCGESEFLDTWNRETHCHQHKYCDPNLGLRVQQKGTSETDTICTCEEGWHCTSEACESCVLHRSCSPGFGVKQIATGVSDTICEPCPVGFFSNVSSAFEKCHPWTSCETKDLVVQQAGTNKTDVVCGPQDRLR

Regarding dacetuzumab, the Kd was 1 nM.

As usually defined, the Kd is the free concentration of one partner at which half of the binding sites on the other are occupied at equilibrium, for simple one-to-one binding.
